This is an account of results in PMC6194124, “Mannosidase activity of EDEM1 and EDEM2 depends on an unfolded state of their glycoprotein substrates” (Communications Biology, 2018).

The experiment has as its target T1, EDEM1-HA (UniProt Q925U4 1-652).
T1 construct: source: HEK 293, transiently transfected (pCMVsport2), in lysate
T1 sequence (looked up): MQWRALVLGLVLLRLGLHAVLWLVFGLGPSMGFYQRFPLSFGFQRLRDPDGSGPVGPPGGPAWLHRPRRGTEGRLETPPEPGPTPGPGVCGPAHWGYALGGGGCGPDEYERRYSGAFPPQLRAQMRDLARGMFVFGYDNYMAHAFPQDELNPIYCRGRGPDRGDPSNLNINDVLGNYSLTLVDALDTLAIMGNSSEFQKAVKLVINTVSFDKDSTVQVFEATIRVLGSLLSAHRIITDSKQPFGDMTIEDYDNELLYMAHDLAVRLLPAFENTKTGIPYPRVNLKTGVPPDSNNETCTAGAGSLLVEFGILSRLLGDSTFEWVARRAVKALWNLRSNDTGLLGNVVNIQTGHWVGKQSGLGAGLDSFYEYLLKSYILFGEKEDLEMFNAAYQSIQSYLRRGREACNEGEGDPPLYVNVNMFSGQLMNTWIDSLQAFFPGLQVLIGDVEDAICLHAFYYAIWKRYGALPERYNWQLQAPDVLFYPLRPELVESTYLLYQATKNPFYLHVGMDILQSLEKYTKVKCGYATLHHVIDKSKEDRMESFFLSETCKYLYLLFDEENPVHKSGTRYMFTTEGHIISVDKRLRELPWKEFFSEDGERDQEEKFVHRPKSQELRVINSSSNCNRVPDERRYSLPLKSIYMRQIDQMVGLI
Nature of the experiment: co-IP; HEK 293 cells expressing EDEM1-HA or EDEM2-HA with FLAG-TXNDC11 or FLAG-PDI; lysed in mild conditions (1% NP-40, 50 mM Tris/HCl pH 8, 150 mM NaCl); immunoprecipitated with anti-EDEM1 or anti-EDEM2, immunoblotted with anti-FLAG. The conditions noted are these: partners not purified. On the technique in general: A western blot detects proteins with antibodies after separation by electrophoresis.

B1: FLAG-PDI (enzyme)
chain: not shown
notes: mammalian protein disulfide isomerase (PDI); vector a gift from E. Avezov; also called protein disulfide isomerase; source: HEK 293, transiently transfected, in lysate
With B1, the “fold weaker coIP than with TXNDC11” value is approximately 15 fold.
